Earlier results in publication PMC4843017.

Biological target: Ndc80 complex (Homo sapiens) (UniProt O14777)
Test: isothermal titration calorimetry

Sequence of Ndc80 complex (Homo sapiens) (O14777 whole entry, chain 1 of 4): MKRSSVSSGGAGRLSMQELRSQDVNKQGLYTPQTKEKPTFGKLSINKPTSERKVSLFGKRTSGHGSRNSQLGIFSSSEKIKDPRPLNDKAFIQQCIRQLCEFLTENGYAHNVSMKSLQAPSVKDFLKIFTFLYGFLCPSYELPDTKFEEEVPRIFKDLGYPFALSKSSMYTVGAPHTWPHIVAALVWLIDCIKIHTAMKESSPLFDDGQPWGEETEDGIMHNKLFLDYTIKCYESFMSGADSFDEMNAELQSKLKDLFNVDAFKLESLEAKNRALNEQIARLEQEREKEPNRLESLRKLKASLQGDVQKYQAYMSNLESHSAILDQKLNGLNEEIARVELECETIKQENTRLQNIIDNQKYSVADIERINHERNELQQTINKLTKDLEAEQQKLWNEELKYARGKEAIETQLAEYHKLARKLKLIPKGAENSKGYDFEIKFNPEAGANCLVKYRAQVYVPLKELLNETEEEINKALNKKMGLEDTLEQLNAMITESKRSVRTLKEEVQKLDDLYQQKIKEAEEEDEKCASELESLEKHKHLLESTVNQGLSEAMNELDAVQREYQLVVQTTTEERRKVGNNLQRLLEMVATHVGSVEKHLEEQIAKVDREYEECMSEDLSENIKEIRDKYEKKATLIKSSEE
Sequence of Ndc80 complex (Homo sapiens) (Q9BZD4 whole entry, chain 2 of 4, further chain): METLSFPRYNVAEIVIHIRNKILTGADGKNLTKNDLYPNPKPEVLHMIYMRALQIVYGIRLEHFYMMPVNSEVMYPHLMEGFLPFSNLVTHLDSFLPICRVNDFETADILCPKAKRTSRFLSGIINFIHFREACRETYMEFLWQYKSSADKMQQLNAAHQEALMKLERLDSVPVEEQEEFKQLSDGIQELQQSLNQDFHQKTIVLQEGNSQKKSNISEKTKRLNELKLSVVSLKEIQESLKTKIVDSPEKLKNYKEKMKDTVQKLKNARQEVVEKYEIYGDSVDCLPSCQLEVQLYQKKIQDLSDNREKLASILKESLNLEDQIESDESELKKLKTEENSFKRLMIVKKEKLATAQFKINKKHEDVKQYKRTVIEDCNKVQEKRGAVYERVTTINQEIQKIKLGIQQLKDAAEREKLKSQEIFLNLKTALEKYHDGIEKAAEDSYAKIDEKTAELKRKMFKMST
Sequence of Ndc80 complex (Homo sapiens) (Q8NBT2 whole entry, chain 3 of 4, further chain): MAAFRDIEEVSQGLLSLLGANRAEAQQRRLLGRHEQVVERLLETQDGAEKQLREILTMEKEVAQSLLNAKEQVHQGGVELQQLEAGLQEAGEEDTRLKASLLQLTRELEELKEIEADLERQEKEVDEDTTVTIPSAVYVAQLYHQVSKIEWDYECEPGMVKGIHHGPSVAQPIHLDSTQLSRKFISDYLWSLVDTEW
Sequence of Ndc80 complex (Homo sapiens) (Q9HBM1 whole entry, chain 4 of 4, further chain): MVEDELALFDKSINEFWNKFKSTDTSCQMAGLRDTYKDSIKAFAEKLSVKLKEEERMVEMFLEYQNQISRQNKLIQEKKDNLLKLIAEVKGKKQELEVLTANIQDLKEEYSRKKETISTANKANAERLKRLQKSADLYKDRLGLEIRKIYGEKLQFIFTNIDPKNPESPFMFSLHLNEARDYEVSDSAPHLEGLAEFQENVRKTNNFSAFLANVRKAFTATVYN

In the case of Mis12 complex (from UniProt Q9H081), the Kd is given as 10 nM.
